Test results published in patent US9206239B2, “Treatment of cancers with immunostimulatory HIV Tat derivative polypeptides” (PIN Pharma, Inc., priority 2009, dated 2015).
“Also recorded” adds a separate entry of the source.

What was measured:
4T1 cells = experiment: Repeated dosing of Nani-P2 alternating with cyclophosphamide in 4T1 tumor-bearing mice; type: in vivo, BALB/c mice; settings: by day 42; 80 mg/kg IP weekly from day 10
Method: Four groups of 10 BALB/c mice were implanted with 1×10^4 4T1 cells SC into the mammary fat pad. Treatment was initiated when tumor diameters reached 4-5 mm, on day 10. Control mice were injected IV with PBS at 3 days intervals, while alternating treatment mice received 3 doses of drug every 3 days in rotating 10 day cycles. Tumor burden (tumor size mm^3) was calculated using a standard formula. CY: (cyclophosphamide alone) mice were injected IP weekly with 80 mg/kg per mouse beginning on day 10. Cy/Nani-P2: (cyclophosphamide first followed by Nani-P2) mice were first injected IP with cyclophosphamide (80 mg/kg) at 3 days intervals for three doses starting at day 10 and then injected IV with Nani-P2 (40 ng) at 3 days intervals for three doses in rotation. The cycle of 3 doses of CY followed by 3 doses of Nani-P2 was repeated until day 50. Nani-P2/CY: (Nani-P2 first followed by cyclophosphamide): mice were first injected IV with Nani-P2 (40 ng) at 3 day intervals for 3 doses starting on day 10 and then injected i.p. with cyclophosphamide at 3 day intervals in rotation. The cycle of 3 doses of Nani-P2 followed by 3 doses of CY was repeated until day 50.

4T1 breast tumor cells = experiment: 4T1 breast tumor growth in BALB/c mice; type: in vivo
Excerpt: Female BALB/c mice 6 to 8 weeks old were purchased from the Jackson Laboratory (Bar Harbor, […].). Mice were acclimated for at least 1 week before use. Mice were kept in pathogen-free conditions at the Animal Maintenance Facility of the Columbia University of Medical Center and all experiments were approved by the Institutional Animal Care and Use Committee of Columbia University of Medical Center.
4T1 cells, a 6-thioguanine-resistant cell line derived from a BALB/c spontaneous mammary carcinoma was obtained from ATCC; TS/A, a murine adenocarcinoma cell line was provided by Dr. Sandra Demaria (Demaria S. et al. Clin Cancer Res. 11:728-34, 2005); and SM1, the BALB/C-derived mammary carcinoma was kindly was provided by Dr. James Allison, University of California, Berkeley. All tumor cell lines were cultured in DMEM, supplemented with 2 mM L-glutamine, 10 mM HEPES, 150 units/ml penicillin/streptomycin, 10% heat-inactivated FCS (Invitrogen), 50 μM 2-mercaptoethanol (Sigma), and 50 mg/L gentamicin (Lanza).
BALB/c were injected (SC) with 1×10^4 4T1, 1×10^5 TS/A or 2×10^5 SM1 cells, respectively, in the left mammary pad on day 0. Immunotherapy was performed by directly injecting a Tat derivative into the right flank at 0, 7, 12, and 17 days after establishment of tumors. The control group received PBS injection. […] Tumor burden (tumor volume) was measured and recorded three times weekly. Animals were sacrificed when tumors reached a volume of 15 mm in diameter and the tumors harvested and weighed.
The therapeutic effect of systemic administration of synthetic, Tat-derived compositions in murine models of breast cancer was investigated. To compare the relative protection conferred by a small panel of different derivatives against primary breast tumor growth, female BALB/c mice were injected with 1×10^4 4T1 breast tumor cells SC into the mammary pad, and then treated with 400 ng partially-purified Tat derivatives at day 0, 7, 14 and 21 (SC injection in PBS) into the draining axillary lymph nodes.

O=P1(N(CCCl)CCCl)NCCCO1 (stereo not drawn) [cyclophosphamide, reference compound]
treated mice dead (4T1 cells): 10/10

B1: Nani-P1: HIV Tat derivative polypeptide, SEQ ID NO: 2; internal prolines of the SH3-binding site each substituted as alanine (protein)
chain: MEPVDANLEAWKHAGSQPRKTACTTCYCKKCCFHCQVCFTRKGLGISYGRKKRRQRRRAPQDSQTHQASLSKQPASQSRGDPTGPTESKKKVERETETDPFD
modifications: Nani-P1 modified HIV Tat sequence
tumor burden compared to control mice receiving PBS (4T1 breast tumor cells; 400 ng partially-purified derivative SC day 0, 7, 14, 21, apparent from day 15 (p<0.05)): significantly reduced tumor burden

B2: Nani-P3: HIV Tat derivative polypeptide, SEQ ID NO: 4; serine-rich TARA homology sequence replaces the SH3 binding sequence (protein)
chain: METPLKEQENSLESCREHSSSISEVDVPTPVSCLRKGGRCWNRCIGNTRQIGSCGVPFLKCCKRKPFTRKGLGISYGRKKRRQRRRAPQDSQTHQASLSKQPASQSRGDPTGPTESKKKVERETETDPFD
modifications: Nani-P3 modified HIV Tat sequence
4T1 primary tumor growth vs controls (4T1 breast tumor cells; 400 ng or 2 μg SC days 0, 7, 14, 21): less effective at suppressing 4T1 primary tumor growth; also recorded: no difference
